The results in this text go back to US20260176352A1 (BIRD ROCK BIO, published 2026).

Test [1] addresses T1, native full length human CB1 receptor (cannabinoid 1 receptor) (human, UniProt P21554 1-472). In words: cell-based or functional assay.
The target of a further test is T2, human CB2 (human, UniProt P34972 1-360).
T2 construct: whole, on cells; also called TRexCHO Human CB2
The test can be described thus: flow cytometry on cells expressing the target.

In another test the target is T3, mouse CB1 (mouse, UniProt P47746 1-473).
T3 construct: whole, on cells; also called TRexCHO Mouse CB1
The test can be described thus: flow cytometry on cells expressing the target.

The target in test [2] is 5HT2B (expression cell line) (Homo sapiens (Human), UniProt P41595 1-481). The test can be described thus: flow cytometry on cells expressing the target.
In test [3] the target is T1, native full length human CB1 receptor …. In words: flow cytometry, Fab on TRex-CHO human CB1 cells.
Procedure: Three-fold serial dilutions from 3 μM to 0.1 μM were prepared.
Test [4] shares this target. In words: binding to CB1 cells (FIG. 12); labeled with Vivotag 680 XL.

Positions count from the first letter of the chain named.

T1 sequence (P21554 whole entry): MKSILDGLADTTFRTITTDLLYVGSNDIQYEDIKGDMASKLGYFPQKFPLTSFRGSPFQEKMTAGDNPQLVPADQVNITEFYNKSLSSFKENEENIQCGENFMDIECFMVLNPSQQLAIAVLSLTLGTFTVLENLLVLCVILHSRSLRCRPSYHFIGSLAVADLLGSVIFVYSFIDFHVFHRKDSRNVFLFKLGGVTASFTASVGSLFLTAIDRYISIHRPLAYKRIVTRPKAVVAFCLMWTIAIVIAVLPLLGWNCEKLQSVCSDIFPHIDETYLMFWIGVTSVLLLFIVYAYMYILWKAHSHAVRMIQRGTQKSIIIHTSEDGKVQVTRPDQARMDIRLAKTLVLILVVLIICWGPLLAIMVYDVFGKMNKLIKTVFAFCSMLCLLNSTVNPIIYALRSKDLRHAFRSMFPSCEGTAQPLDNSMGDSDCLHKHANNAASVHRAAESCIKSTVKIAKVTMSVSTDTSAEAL
Sequence of 5HT2B (expression cell line) (P41595 whole entry): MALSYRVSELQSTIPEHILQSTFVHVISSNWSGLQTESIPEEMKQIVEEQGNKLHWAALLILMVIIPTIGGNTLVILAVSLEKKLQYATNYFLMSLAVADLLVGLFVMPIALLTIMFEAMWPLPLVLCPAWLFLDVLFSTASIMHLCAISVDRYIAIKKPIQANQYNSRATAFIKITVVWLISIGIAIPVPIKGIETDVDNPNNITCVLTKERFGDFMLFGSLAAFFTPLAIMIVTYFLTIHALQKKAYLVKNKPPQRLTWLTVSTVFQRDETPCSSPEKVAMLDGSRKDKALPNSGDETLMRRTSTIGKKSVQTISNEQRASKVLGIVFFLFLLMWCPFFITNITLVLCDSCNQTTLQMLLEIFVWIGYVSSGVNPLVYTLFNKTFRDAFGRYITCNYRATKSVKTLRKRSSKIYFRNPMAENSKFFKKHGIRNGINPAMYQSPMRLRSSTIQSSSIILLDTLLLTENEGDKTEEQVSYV
T2 sequence (P34972 whole entry): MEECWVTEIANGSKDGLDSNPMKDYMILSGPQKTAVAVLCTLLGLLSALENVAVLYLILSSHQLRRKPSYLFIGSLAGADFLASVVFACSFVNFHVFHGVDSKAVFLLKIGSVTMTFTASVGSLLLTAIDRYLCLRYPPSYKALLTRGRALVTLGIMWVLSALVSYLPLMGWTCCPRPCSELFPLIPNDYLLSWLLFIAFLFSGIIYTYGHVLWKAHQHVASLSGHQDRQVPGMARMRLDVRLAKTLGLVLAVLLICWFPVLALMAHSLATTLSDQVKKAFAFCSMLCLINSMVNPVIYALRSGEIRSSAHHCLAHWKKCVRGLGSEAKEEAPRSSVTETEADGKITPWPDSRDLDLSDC
T3 sequence (P47746 whole entry): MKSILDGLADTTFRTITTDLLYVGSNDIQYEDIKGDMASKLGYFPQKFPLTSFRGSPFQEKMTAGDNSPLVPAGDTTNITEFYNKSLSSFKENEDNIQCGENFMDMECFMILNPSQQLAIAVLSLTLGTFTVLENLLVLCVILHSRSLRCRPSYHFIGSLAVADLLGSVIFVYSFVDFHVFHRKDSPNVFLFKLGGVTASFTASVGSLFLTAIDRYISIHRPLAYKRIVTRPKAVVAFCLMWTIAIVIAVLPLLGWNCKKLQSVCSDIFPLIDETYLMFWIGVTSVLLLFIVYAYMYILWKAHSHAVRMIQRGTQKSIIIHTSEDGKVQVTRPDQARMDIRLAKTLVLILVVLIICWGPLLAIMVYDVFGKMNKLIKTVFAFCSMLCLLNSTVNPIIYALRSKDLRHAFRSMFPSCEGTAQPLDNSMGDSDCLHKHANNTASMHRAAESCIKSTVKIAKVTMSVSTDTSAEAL

B1: PA13R3-P1C4 Fab (Fab, V domains shown)
VH: EVQLQQSGAELVRPGVSVKISCKASGYEFSYYWMNWVKQRPGQGLEWIGQIYPGDGETKYNGKFKGKATLTADKSSNTAYMQLSSLTSEDSAVYFCARSHGNYLPYWGQGTLVTVSA
VL: DIVLTQSPAIMSASLGERVTMTCTASSSVSSSYLHWYQQKPGSSPKLWIYSTSNLASGVPARFSGSGSGTSYSLTISSMEAEDAATYYCHQYHRSPPTFGAGTKLELK
notes: also called Chimeric P1C4 Fab
Consider B1, for which the “IC50 cAMP assay” value in test [1] is 427 nM. For the same molecule, the binding result (with human CB2; with mouse CB1; in test [2]) was “no binding (tested: 1 µM)” in each case. Further, binding in test [3] was characterised by a dissociation constant (Kd) of 130 nM.

B2: P4B5 antibody labeled with Vivotag 680 XL (antibody, human IgG1, kappa, V domains shown)
VH: B1 VH with V16S, E28A, E57D, K59N, N61S, K63R, N77S, M81I, L104F
VL: DIVLNQSPAIMSASLGERVTMTCTASSSVSSSYLHWYQQKPGSSPKLWIYSTSNLASGVPARFSGSGSGTSYSLTISSMEAEDAATYYCHQYHRSPLTFGAGTKLEIKR
modifications: Vivotag 680 XL label, site and chain not stated
notes: also called Labeled P4B5
In test [4], B2 returned an EC50 of 57.8 nM.
